# Data: patent US20260062488A1
# “And” between values parts separate entries of the source, which are not always exact repeats. Equal values may be shown once. Read-outs that look alike come from different tables or passages of the source.
# How the values were obtained:
# [1] = biological target: cynomolgus α4β7 integrin (cynomolgus monkey); assay: FACS, cyno CD4+ naïve
# [2] = biological target: cynomolgus α4β7 integrin (cynomolgus monkey); assay: FACS, cyno CD4+ total
# [3] = biological target: cynomolgus α4β7 integrin (cynomolgus monkey); assay: FACS, cyno CD8+ naïve
# [4] = biological target: cynomolgus α4β7 integrin (cynomolgus monkey); assay: FACS, cyno CD8+ total
# [5] = biological target: cynomolgus α4β7 integrin (cynomolgus monkey); assay: FACS, cyno CD8+ memory
# [6] = biological target: human α4β7 integrin (human) (UniProt P13612); assay: FACS, human CD4+ naïve
# [7] = biological target: human α4β7 integrin (human) (UniProt P13612); assay: FACS, human CD4+ total
# [8] = biological target: human α4β7 integrin (human) (UniProt P13612); assay: FACS, human CD8+ naïve
# [9] = biological target: human α4β7 integrin (human) (UniProt P13612); assay: FACS, human CD8+ total
# [10] = biological target: human α4β7 integrin (human) (UniProt P13612); assay: flow cytometry, HuT78 cells
# [11] = biological target: human α4β7 integrin (human) (UniProt P13612); assay: FACS titration on BaF3-hα4β7
# [12] = biological target: human α4β7 integrin (human) (UniProt P13612); assay: binding to human lymphocytes
# [13] = biological target: human α4β7 integrin (human) (UniProt P13612); assay: ELISA on coated α4β7+GFP+VLPs
# [14] = biological target: cynomolgus αEβ7 integrin (cynomolgus monkey); assay: FACS, 1 µg/ml, BaF3-cαEβ7 cells
# [15] = biological target: human α4β7 integrin (human) (UniProt P13612); assay: FACS, 1 µg/ml, BaF3-hα4β7 cells
# [16] = biological target: human αEβ7 integrin (human) (UniProt P38570); assay: FACS, 1 µg/ml, BaF3-hαEβ7 cells
# [17] = biological target: cynomolgus αEβ7 integrin (cynomolgus monkey); assay: FACS, 1 µg/ml, BaF3-cαEβ7 cells; remark: listed apart in the source
# [18] = biological target: human α4β7 integrin (human) (UniProt P13612); assay: FACS, 1 µg/ml, BaF3-hα4β7 cells; remark: listed apart in the source
# [19] = biological target: human αEβ7 integrin (human) (UniProt P38570); assay: FACS, 1 µg/ml, BaF3-hαEβ7 cells; remark: listed apart in the source
# [20] = biological target: cynomolgus α4β7 integrin (cynomolgus monkey); assay: FACS, 1 µg/ml, CHOK1-cα4β7 cells
# [21] = biological target: human α4β1 integrin (human) (UniProt P05556); assay: FACS, 1 µg/ml, CHOK1-hα4β1 cells
# [22] = biological target: mouse α4β7 integrin (mouse) (UniProt Q00651); assay: FACS, 1 µg/ml, CHOK1-mα4β7 cells
# Sequence of mouse α4β7 integrin (mouse) (Q00651 41-1039, chain 1 of 2): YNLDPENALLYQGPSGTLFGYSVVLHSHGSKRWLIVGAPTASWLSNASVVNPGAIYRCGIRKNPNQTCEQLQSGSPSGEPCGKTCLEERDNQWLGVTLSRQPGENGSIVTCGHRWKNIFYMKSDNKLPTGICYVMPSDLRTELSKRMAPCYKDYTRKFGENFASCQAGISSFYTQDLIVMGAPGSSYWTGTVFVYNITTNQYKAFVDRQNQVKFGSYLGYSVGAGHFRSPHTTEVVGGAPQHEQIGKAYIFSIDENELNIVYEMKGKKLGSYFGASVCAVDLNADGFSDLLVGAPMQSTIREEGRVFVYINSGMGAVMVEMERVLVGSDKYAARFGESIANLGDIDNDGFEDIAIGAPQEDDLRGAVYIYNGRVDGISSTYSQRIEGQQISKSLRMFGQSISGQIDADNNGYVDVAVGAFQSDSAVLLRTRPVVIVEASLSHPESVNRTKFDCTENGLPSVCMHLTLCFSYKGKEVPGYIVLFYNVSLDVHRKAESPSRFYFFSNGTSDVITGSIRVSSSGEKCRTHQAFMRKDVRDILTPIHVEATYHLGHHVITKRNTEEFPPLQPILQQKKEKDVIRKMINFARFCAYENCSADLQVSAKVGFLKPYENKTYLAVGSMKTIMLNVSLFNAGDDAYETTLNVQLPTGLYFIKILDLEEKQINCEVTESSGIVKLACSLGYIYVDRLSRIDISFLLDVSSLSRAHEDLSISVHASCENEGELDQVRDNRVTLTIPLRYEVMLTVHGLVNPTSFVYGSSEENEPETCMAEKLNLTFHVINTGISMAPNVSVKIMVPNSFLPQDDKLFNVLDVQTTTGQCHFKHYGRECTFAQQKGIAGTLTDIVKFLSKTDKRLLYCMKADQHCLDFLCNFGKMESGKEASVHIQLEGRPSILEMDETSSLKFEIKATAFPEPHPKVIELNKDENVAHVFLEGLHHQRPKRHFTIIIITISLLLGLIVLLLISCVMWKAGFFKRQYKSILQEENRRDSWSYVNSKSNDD
# Sequence of mouse α4β7 integrin (mouse) (P26011 20-806, chain 2 of 2, further chain): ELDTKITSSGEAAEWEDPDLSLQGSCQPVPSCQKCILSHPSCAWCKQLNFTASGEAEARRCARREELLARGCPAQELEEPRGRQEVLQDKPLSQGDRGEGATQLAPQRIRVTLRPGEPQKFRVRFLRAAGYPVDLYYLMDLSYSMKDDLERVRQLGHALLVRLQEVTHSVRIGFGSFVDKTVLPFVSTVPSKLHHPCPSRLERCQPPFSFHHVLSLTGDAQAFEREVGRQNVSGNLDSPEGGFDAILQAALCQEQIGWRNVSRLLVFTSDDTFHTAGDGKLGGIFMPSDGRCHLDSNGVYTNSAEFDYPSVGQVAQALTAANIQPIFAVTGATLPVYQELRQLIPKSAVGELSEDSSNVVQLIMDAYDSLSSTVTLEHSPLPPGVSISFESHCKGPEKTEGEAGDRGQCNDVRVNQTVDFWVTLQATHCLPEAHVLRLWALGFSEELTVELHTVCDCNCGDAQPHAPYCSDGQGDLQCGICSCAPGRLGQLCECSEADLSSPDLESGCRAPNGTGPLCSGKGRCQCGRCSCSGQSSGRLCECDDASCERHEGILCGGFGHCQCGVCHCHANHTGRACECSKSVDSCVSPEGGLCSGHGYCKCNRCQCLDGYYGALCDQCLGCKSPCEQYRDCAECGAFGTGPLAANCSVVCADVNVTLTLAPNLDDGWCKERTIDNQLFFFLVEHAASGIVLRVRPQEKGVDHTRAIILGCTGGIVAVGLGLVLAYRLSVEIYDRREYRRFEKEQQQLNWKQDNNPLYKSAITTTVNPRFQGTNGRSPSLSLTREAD
# [23] = biological target: cynomolgus α4β7 integrin (cynomolgus monkey); assay: FACS, 1 µg/ml, CHOK1-cα4β7 cells; remark: listed apart in the source
# [24] = biological target: human α4β1 integrin (human) (UniProt P05556); assay: FACS, 1 µg/ml, CHOK1-hα4β1 cells; remark: listed apart in the source
# [25] = biological target: human α4β7 integrin (human) (UniProt P13612); assay: FACS, primary human CD4+ memory T cells
# [26] = biological target: human α4β7 integrin (human) (UniProt P13612); assay: blockade of HuT78 cell adhesion to MAdCAM-1
# [27] = biological target: human α4β7 integrin (human) (UniProt P13612); assay: blockade of HuT78 cell adhesion to MAdCAM-1; remark: listed apart in the source
# [28] = biological target: cynomolgus α4β7 integrin (cynomolgus monkey); assay: blockade of CHOK1/cα4β7 adhesion to MAdCAM-1
# [29] = biological target: cynomolgus α4β7 integrin (cynomolgus monkey); assay: blockade of CHOK1-cα4β7 cell adhesion to MAdCAM-1
# [30] = biological target: cynomolgus α4β7 integrin (cynomolgus monkey); assay: blockade of CHOK1-cα4β7 cell adhesion to MAdCAM-1; remark: listed apart in the source
# [31] = biological target: human α4β7 integrin (human) (UniProt P13612); assay: blockade of MAdCAM-1 mediated HuT78 cell adhesion
# [32] = biological target: human α4β7 integrin (human) (UniProt P13612); assay: virion capture, Protein G plate, HIV BCF06, p24 gag
# [33] = biological target: human α4β7 integrin (human) (UniProt P13612); assay: virion capture, Protein G plate, HIV CMU08, p24 gag
# [34] = biological target: human α4β7 integrin (human) (UniProt P13612); assay: virion capture, Protein G plate, HIV NL4-3, p24 gag
# [35] = biological target: human α4β7 integrin (human) (UniProt P13612); assay: virion capture, Protein G plate, HIV RU570, p24 gag
# [36] = biological target: human α4β7 integrin (human) (UniProt P13612); assay: virion capture, Protein G plate, HIV YBF30, p24 gag
# [37] = biological target: human α4β7 integrin (human) (UniProt P13612); assay: HuT78 cells, FACS-based blockade of MAdCAM-1 binding
# [38] = biological target: human α4β7 integrin (human) (UniProt P13612); assay: competitive FACS, 50x excess of non-labelled competitor Ab-m1
# [39] = biological target: human α4β7 integrin (human) (UniProt P13612); assay: competitive FACS, 50x excess of non-labelled competitor Ab-Abri
# [40] = biological target: human α4β7 integrin (human) (UniProt P13612); assay: competitive FACS, 50x excess of non-labelled competitor Ab-Etro
# [41] = biological target: human α4β7 integrin (human) (UniProt P13612); assay: competitive FACS, 50x excess of non-labelled competitor Ab-Vedo
# [42] = biological target: human α4β7 integrin (human) (UniProt P13612); assay: blockade of RPMI 8866 cell binding to immobilised gp120-V2 WT peptide
# [43] = biological target: human α4β7 integrin (human) (UniProt P13612); assay: human lymphocytes, printed as plate-based cell adhesion blockade to MAdCAM-1
# [44] = biological target: human α4β7 integrin (human) (UniProt P13612); assay: row IC50 (pM) HuT78 of the binning table (assay not explained, presumably adhesion to MAdCAM-1)
# [45] = biological target: human α4β7 integrin (human) (UniProt P13612); assay: ELISA on plates coated with α4β7+GFP+VLPs; table drawn under the plot, without unit: unit from the axis '[Ab] (nM)'; the text prints the rounded 0.058 nM
# [46] = biological target: human α4β7 integrin (human) (UniProt P13612); assay: blockade of HuT78 cell adhesion to plate-bound MAdCAM-1, representative experiment; the two IC50 lines under the plot bear no name: the higher one is given to Ab-Vedo, whose curve lies right of Ab-m1's (midpoint near log -1.8 ug/ml)
# [47] = biological target: cynomolgus α4β7 integrin (cynomolgus monkey); assay: blockade of CHOK1-cα4β7 cell adhesion to MAdCAM-1, representative experiment; the two IC50 lines under the plot bear no name: the higher one is given to Ab-Vedo, whose curve lies clearly right of Ab-m1's (midpoint near log -0.9 ug/ml)
# [48] = biological target: human α4β7 integrin (human) (UniProt P13612); assay: cell-based or functional assay
# Sequence of Ab-Vedo (antibody) (VH): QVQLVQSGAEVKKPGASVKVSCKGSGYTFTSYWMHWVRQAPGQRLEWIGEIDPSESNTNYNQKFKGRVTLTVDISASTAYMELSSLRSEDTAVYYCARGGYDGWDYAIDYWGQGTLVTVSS
# Sequence of Ab-Vedo (antibody) (VL): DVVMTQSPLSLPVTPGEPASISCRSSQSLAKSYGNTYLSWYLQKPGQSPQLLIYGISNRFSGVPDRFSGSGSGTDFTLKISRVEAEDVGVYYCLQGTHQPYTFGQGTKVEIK
substance,measurement,setting,value
Ab-Vedo (antibody),EC50,[1],0.228 nM
same,EC50,[2],0.202 nM
same,EC50,[3],0.256 nM
same,EC50,[4],0.199 nM
same,EC50,[5],0.204 nM
same,EC50,[6],0.381 nM
same,EC50,[7],0.381 nM
same,EC50,[8],0.727 nM
same,EC50,[9],0.658 nM
same,EC50,[10],0.911 nM
same,EC50,[11],0.713 nM
same,Max MFI,[11],848 MFI
same,EC50,[12],0.502 nM
same,EC50,[13],0.058 nM
same,FACS MFI,[14],57.2 MFI
same,FACS MFI,[15],707 MFI
same,FACS MFI,[16],11.6 MFI
same,FACS MFI,[17],60.9 MFI
same,FACS MFI,[18],153 MFI
same,FACS MFI,[19],19.5 MFI
same,FACS MFI,[20],101 MFI
same,FACS MFI,[21],4.23 MFI
same,FACS MFI,[22],2.91 MFI
same,FACS MFI,[23],46.5 MFI
same,FACS MFI,[24],2.87 MFI
same,EC50,[25],0.0432 nM
same,IC50,[26],0.0949 nM
same,Max inhibition (%),[26],86.5%
same,IC50,[27],0.0574 nM
same,Max inhibition (%),[27],94.7%
same,IC50,[28],0.12 nM
same,IC50,[29],0.562 nM
same,Max inhibition (%),[29],76%
same,IC50,[30],0.541 nM
same,Max inhibition (%),[30],94.4%
same,IC50,[31],0.031 nM and 0.06 nM
same,EC50,[32],0.37 nM and 0.056 µg/mL
same,EC50,[33],0.5 nM and 0.075 µg/mL
same,EC50,[34],0.34 nM and 0.05 µg/mL
same,EC50,[35],0.32 nM and 0.048 µg/mL
same,EC50,[36],0.48 nM and 0.072 µg/mL
same,IC50,[37],0.193 nM
same,percentage of binding inhibition,[38],76%
same,percentage of binding inhibition,[39],89%
same,percentage of binding inhibition,[40],18%
same,percentage of binding inhibition,[41],88%
same,IC50,[42],0.042 µg/mL
same,IC50,[43],0.63 nM
same,IC50,[44],0.089 nM
same,EC50,[45],0.0582 nM
same,IC50,[46],0.0981 nM
same,IC50,[47],0.822 nM
MAdCAM-1 (R&D systems) (from UniProt Q13477 19-317) (ligand),activated (Ki67+CD25+) human primary CD4+ T cells with plate bound anti-CD3 and MAdCAM-1 (22.6% with anti-CD3 alone),[48],56.6%
